Source: article PMC5855701

Columns and labels:
[1] = molecular target: GST-CA-Rac1 (constitutively-active Rac1 fused to GST) (UniProt P63000); test: pull-down; GST fusion (GST-RacWT, GST-CA-Rac1 or GST-alone) on glutathione-agarose beads; 550-1000 ug total lysate of HP cells, unstimulated or treated with TGFβ1 (10 ng/mL) up to 60 min; 2 h at 4 °C; three washes; immunoblot for Trio or CdGAP (LiCor)
[2] = molecular target: GST-Rac1 (wild type Rac1 fused to GST) (UniProt P63000); test: as above

Chain of CdGAP (Q2M1Z3 whole entry): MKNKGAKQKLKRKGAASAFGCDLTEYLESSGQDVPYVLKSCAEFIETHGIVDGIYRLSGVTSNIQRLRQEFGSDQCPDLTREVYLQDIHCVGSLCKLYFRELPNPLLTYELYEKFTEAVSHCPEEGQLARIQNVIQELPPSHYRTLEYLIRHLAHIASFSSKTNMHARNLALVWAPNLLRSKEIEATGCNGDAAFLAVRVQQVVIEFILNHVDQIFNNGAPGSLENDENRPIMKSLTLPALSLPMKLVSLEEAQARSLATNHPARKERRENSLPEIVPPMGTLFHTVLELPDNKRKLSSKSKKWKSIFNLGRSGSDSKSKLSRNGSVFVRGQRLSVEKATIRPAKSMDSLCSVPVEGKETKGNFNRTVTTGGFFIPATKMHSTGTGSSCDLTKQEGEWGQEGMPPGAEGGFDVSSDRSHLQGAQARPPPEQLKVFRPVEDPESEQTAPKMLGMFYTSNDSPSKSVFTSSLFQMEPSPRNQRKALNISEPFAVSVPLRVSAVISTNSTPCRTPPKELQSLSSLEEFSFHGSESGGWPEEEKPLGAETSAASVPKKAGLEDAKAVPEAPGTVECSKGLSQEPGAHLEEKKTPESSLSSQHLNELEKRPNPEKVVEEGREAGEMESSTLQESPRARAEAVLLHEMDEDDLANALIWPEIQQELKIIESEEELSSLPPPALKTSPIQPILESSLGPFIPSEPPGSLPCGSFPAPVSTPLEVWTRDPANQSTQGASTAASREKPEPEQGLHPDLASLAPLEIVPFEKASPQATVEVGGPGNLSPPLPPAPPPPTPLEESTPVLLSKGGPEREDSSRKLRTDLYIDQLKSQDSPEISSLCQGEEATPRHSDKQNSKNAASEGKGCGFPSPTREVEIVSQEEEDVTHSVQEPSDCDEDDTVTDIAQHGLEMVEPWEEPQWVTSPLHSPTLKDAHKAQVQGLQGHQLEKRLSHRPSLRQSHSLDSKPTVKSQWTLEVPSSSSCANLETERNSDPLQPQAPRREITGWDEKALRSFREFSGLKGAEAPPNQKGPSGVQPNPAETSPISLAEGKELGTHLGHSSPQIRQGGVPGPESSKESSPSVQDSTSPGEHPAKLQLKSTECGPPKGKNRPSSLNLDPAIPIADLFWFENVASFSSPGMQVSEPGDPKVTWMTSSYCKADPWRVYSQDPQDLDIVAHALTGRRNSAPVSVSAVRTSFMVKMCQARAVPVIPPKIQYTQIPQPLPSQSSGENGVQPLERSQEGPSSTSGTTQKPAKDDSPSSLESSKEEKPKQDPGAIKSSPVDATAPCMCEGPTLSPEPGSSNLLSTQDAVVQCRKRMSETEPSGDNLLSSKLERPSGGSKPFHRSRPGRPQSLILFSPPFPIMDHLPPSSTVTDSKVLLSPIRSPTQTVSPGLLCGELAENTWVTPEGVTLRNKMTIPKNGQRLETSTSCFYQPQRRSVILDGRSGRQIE

fold change of CdGAP pulled down by GST-CA-Rac1, 30 min TGFβ1 against 0 min [1] | fold change of CdGAP pulled down by GST-CA-Rac1, 45 min TGFβ1 against 0 min [1] | fold change of CdGAP pulled down by GST-CA-Rac1, 60 min TGFβ1 against 0 min [1] | fold change of Trio bound to GST-Rac1, 45 min TGFβ1 against unstimulated [2] | Substance
1.55 fold | 1.56 fold | 1.53 fold |  | CdGAP (from UniProt Q2M1Z3 1-1444) (natural protein)
 |  |  | 1.82 fold | Trio, O75962 1-3097 (natural protein; other documents disagree on this pair)
